Experimental data: US20260201015A1 (University of Washington, published 2026)
Several values for one entry are separate records, joined by “and”; a condition that tells them apart may be missing. Equal values may be shown once. Values belong to the binder of their own block, whether it stands above or below them.

Experiments:
[1] = molecular target: T1, Glucagon-like peptide 1 (GLP1) (UniProt P01275 98-128, fluorescently labeled (FAM or TAMRA) in FP assays, site not stated); experiment: fluorescence polarization titration
T1 peptide (looked up): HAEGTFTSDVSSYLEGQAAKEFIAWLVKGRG
Method: (§1) Fluorescence polarization binding assays were carried out in 96-well plates (Corning 3686), with two-fold serial dilution of designed peptide binders in the presence of 0.5 nM fluorescently labeled peptide targets. Protein and peptide were diluted from their stock concentration into 20 mM Tris-HCl pH 8, 100 mM NaCl, 0.1% v/v Tween 20, and the protein was titrated in 2-fold serial dilutions onto constant peptide. After incubating the peptide and binder for one hour at room temperature, the fluorescence polarization was measured at the excitation and emission wavelengths of the FAM dye (485/530 nm) or the TAMRA dye (530/590 nm), in a Synergy Neo2 multi-mode plate reader. Titrations were conducted in replicate, and the Kd was fitted with SciPy¹⁸. Specifically, curves were fit to N observations of an observed signal, Signalᵢ, at titrated concentrations according to the following equation: […]

[2] = molecular target: T1, Glucagon-like peptide 1 (GLP1); experiment: fluorescence polarization (FIG. 7a)
Method: as §1

[3] = molecular target: T2, glucagon (GCG) (UniProt P01275 53-81, fluorescently labeled (FAM or TAMRA) in FP assays, site not stated; biotinylated in yeast display); experiment: fluorescence polarization
Method: as §1

[4] = molecular target: T3, secretin (SCT) (UniProt P09683 28-54, fluorescently labeled (FAM or TAMRA) in FP assays, site not stated); experiment: fluorescence polarization
T3 peptide (looked up): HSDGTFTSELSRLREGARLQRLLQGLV
Method: as §1

[5] = molecular target: peptide YY (PYY) (UniProt P10082 29-64, limits assumed, fluorescently labeled (FAM or TAMRA) in FP assays, site not stated); experiment: fluorescence polarization
Method: as §1

[6] = molecular target: T4, neuropeptide Y (NPY) (UniProt P01303 29-64, fluorescently labeled (FAM or TAMRA) in FP assays, site not stated; biotinylated in yeast display); experiment: fluorescence polarization
Method: as §1

[7] = molecular target: T5, parathyroid hormone (PTH) peptide (UniProt P01270 32-65, limits assumed, TAMRA label in FP assays (PTH-TAMRA), site not stated; biotinylated in yeast display); experiment: fluorescence polarization, binder titrated onto labeled peptide
T5 construct: In the NanoBiT assay the peptide was genetically fused to lgBiT; also called PTH-TAMRA peptide
T5 peptide (looked up): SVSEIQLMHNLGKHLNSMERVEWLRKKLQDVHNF
Method: as §1

[8] = molecular target: T5, parathyroid hormone (PTH) peptide; experiment: FP against the NanoBiT estimate for the starting parametric binder
[9] = molecular target: T2, glucagon (GCG); experiment: fluorescence polarization titration (FIG. 6a)
Method: as §1

[10] = molecular target: T4, neuropeptide Y (NPY); experiment: fluorescence polarization titration (FIG. 6b)
Method: as §1

[11] = molecular target: T5, parathyroid hormone (PTH) peptide; experiment: fluorescence polarization
Method: as §1

[12] = molecular target: PTH related peptide (PTHrp) (UniProt P12272 37-70, limits assumed, fluorescently labeled (FAM or TAMRA) in FP assays, site not stated); experiment: fluorescence polarization
Method: as §1

[13] = molecular target: T6, BIM BH3 peptide (Bim) (UniProt O43521 141-166, limits assumed, fluorescently labeled (FAM or TAMRA) in FP assays, site not stated; biotinylated in yeast display); experiment: fluorescence polarization
T6 construct: domain: BH3
Method: as §1

[14] = molecular target: T7, Gastric inhibitory polypeptide (GIP) (UniProt P09681 52-93, fluorescently labeled (FAM or TAMRA) in FP assays, site not stated); experiment: fluorescence polarization (FIG. 7b)
T7 peptide (looked up): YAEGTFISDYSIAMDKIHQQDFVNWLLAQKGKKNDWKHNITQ
Method: as §1

[15] = molecular target: T7, Gastric inhibitory polypeptide (GIP); experiment: fluorescence polarization titration
Method: as §1

T2 sequence (P01275 53-81 limits assumed): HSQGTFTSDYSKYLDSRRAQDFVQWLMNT
peptide YY (PYY), sequence (P10082 29-64 limits assumed): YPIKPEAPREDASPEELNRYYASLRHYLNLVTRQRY
PTH related peptide (PTHrp), sequence (P12272 37-70 limits assumed): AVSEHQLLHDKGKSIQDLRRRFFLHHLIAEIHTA
T6 sequence (O43521 141-166 limits assumed): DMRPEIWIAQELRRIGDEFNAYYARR

B1: GLP1_B04 (Sequence threading), SEQ ID NO: 7 (designed binder)
chain: SPEEEARRAAREAERAAREAREAARRLGDEESVRVAERLEREARRAERERDLELARRVLRAAEALRLALEGELLAREQGDELGVVVARMITLAARDSALGRGTPELARLLLRVARALLEGDLEEVVRSLAEIAKREIGTERALLAVEAIKLVALESIEEGDFETAELAIEKLREIAEEFEGTEVAEKAREAIEEIEKKKREAE
Kd [1]: 68.8 nM
Kd [2]: < 100 nM

B7: GCG_A04 (RFjoint), inpainted GCG binder, SEQ ID NO: 3 (designed binder)
chain: MLDELFSLLNKMFELSDKYRELRKELRKAIESGAPEEELRELLEKMLEIAKKLLELTKELKKLVEDVLKNNPDPVERAKAVLLYAVGVHILYSESSELEVIAERLGFKDIAEKAKEIADKARELKEEVKRKLREIREEVPDPEIRKAAEEAIEMLESNDKRLKEFRKL
Kd [9]: 231 nM

B8: NPY_A9 (RFjoint), inpainted NPY binder, SEQ ID NO: 4 (designed binder)
chain: GAAEKLAELYEKFKALREKALEVLKKAVEALENKADKETLLKLIKELKELAEKFEELAEEFERNAGESTTASLNATAAYMARIGLLAALLALAKAAGVPEEELEEIKRRIEETAKRAIEAAERLKALAEARGDTKHVAVGVEAVRMATELYELAQKIIDAF
Kd [10]: 3500 nM

B10: BIM_E09 (RF Diffusion), fully diffused Bim binder, SEQ ID NO: 11 (designed binder)
chain: EEERKEKREKVRAGLKRAIAELPAEVAARCLALLDDASDEEFIEAVLEVLEAMREALVAMAREGRLDAVRRATSHINEVLVDAAELALEKGREYFRRLCLIVCDMMIELIRLEPEQTPELRRIRERLEEIRRRLE
Kd [13]: < 0.5 nM

B11: GIP_A08 (Sequence threading), SEQ ID NO: 6 (designed binder)
chain: SPKEKAERLIKEAKEAAEKAKEAAERSGLEEAKKAAEELTKLLEEAAARVAADPEDETKLRALEKIVEAAKEAVKALEVAIESGDEQLIRAALSLVEAAVHLAKALLAKPESPLVDFGFELLKLAAKTLAAYAEGEDVDKIALKLKAISAMAEALRLALAGDLERAARAAEEAVRYAIEAGDKELLRLAAEVAAYIARLAEEAGLEEVARRAREAAERAREAAK
Kd [14]: < 100 nM
Kd [15]: 6.96 nM

Other lines, results leading:

binding result [3]: binds
fold weaker binding to SCT than to GCG [4]: 10 fold
B2: GCG_C09 (RF Diffusion/Partial diffusion), partially diffused GCG binder, SEQ ID NO: 8 (designed binder)
chain: SMEKLAEIMQEIIEAYQEVKDAFFKFIKAVHEGAPEEELKKYLEKMKEALEKMKELLERLEKEAKKVIEENKDKKLELKVLLMLRLAYLLLKVSIELTKIAAEKLGDKELVEELEKESKEVEKKIKELEERIKKLLEEVDDEELKEAYKEVEEMEKEAEKFLEKMRKV

Kd [5]: 24.5 nM
B3: PPY_A04 (RF Diffusion_flex), flexibly diffused PYY binder, SEQ ID NO: 12 (designed binder)
chain: GLEEAEKLLEEIFANFEEIVELIKKNIGTERGKKLLKVFVATVDLILARLEQGADLAELAELVKEIAELAKDEEGLEEAEKLVKELTAAR

Kd [3]: 12 nM
fold selectivity for SCT over GCG [3]: 4 fold
Kd [4]: 3.95 nM and 2.7 nM
B4: SCT_A02 (Sequence threading), threaded SCT binder, SEQ ID NO: 5 (designed binder)
chain: SEELEERLREARERLEEARERLEEAREEGDLREMARALLEEARAVLEIARVAAEAGDDEALREAARRAGEVIRRAGEVGLRAAEEGDTETIREAMLAILEAQRASAVIALHLARDDPEVAEALRVIERLLRTAERALREGQLEVARLATEAVEALADAILRAREIGRPELVREAARLAEEARRLLEAALEALRAGDEEGARERLARARELIREIRERVRRA
notes: also called SCT design

binding result [5]: no binding
Kd [6]: 5.29 nM and 5.6 nM
B5: NPY_C5 (RF Diffusion/Partial diffusion), partially diffused NPY binder, SEQ ID NO: 9 (designed binder)
chain: GMEERRKELLEKLKKLKEEVVELFRELAQALRDGASKERLEEIRERAEKLAEEAKKVAEELEKLAEGDAVLQLYLAEAYALEAAALTIEAVAAAELGASKEELEKIKEKIEEALKKAEEAMKKALAEAKARGRERLVRLIEEARKEFEKLSKAIKELLEQV

Kd [7]: 6.1 nM
fold improvement in affinity over the starting PTH binder [8]: ~1000 fold
B6: PTH_B10 (RFjoint), inpainted PTH binder, SEQ ID NO: 2 (designed binder)
chain: SFELLEKLIELSKELYEVAKKYIETGDPELKKKLEEILKKIEEAYKELLESDAHPLEKALAKLILAEAYVVKSFAYISSGKDLEKAQEYLDKAKEILEELLKLLEELKKEETDPEKLEIIEELEKIAEELLKEIEE
notes: Expressed in E. coli, purified on Ni-NTA and by SEC

Kd [11]: < 0.5 nM
binding result [12]: no binding
B9: PTH_D08, fully diffused PTH binder (RF Diffusion), SEQ ID NO: 10 (designed binder)
chain: MREKLEEMLEEFNEVIDELIEITKEDAPELEELRERAEEAVENERLDELEEILDELEVIILEAMFRDLSAAIEMTKAKNDKEKLKELLKQLEELEKRIKELLERAKKRGNKKIIEKLEKLLKEVEKLKKEIEEYLK
